In patent publication US20230034186A1 (DRAGONFLY THERAPEUTICS, published 2023):

Molecular target: HER2 (human, UniProt P04626 23-1255)
Assay: cell-based or functional assay

B1: A49-F3′-TriNKET-Trastuzumab (bispecific antibody)
heavy: EVQLVESGGGLVKPGGSLRLSCAASGFTFSSYSMNWVRQAPGKGLEWVSSISSSSSYIYYADSVKGRFTISRDNAKNSLYLQMNSLRAEDTAVYYCARGAPMGAAAGWFDPWGQGTLVTVSSASTKGPSVFPLAPSSKSTSGGTAALGCLVKDYFPEPVTVSWNSGALTSGVHTFPAVLQSSGLYSLSSVVTVPSSSLGTQTYICNVNHKPSNTKVDKKVEPKSCDKTHTCPPCPAPELLGGPSVFLFPPKPKDTLMISRTPEVTCVVVDVSHEDPEVKFNWYVDGVEVHNAKTKPREEQYNSTYRVVSVLTVLHQDWLNGKEYKCKVSNKALPAPIEKTISKAKGQPREPQVCTLPPSRDELTENQVSLTCLVKGFYPSDIAVEWESNGQPENNYKTTPPVLDSDGSFFLYSWLTVDKSRWQQGNVFSCSVMHEALHNHYTQKSLSLSPG
chain: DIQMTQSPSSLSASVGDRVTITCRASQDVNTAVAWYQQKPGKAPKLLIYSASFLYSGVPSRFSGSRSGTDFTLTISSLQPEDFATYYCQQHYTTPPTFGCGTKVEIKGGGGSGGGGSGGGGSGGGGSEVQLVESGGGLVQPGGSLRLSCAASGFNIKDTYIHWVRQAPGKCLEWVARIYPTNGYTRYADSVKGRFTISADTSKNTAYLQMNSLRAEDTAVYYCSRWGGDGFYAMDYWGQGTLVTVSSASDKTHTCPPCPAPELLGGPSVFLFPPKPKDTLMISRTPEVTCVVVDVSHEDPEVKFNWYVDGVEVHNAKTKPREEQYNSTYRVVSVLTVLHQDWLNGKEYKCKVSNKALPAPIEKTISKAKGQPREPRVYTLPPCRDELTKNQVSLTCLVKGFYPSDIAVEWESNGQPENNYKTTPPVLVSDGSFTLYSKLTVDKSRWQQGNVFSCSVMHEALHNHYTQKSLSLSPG
light: DIQMTQSPSSVSASVGDRVTITCRASQGISSWLAWYQQKPGKAPKLLIYAASSLQSGVPSRFSGSGSGTDFTLTISSLQPEDFATYYCQQGVSFPRTFGGGTKVEIKRTVAAPSPPSDEQLKSGTASVVCLLNNFYPREAKVQWKVDNALQSGNSQESVTEQDSKDSTYSLSSTLTLSKADYEKHKVYACEVTHQGLSSPVTKSFNRGEC
- EC50 in KHYG-1-CD16V cell killing of Hs578T cells: 0.376 nM
- EC50 in KHYG-1-CD16V cell-mediated cytolysis of BT-20 cells: 1.16 nM
- fold potency against trastuzumab in triggering NK cell-mediated killing of SKBR-3 cells: 2.5 fold
